Measured values taken from patent US10800847.

Legend:
[1] = target: Albumin (negative control beads) (human or bovine); assay: Luminex, iBeads (#6), 1:8
HLA-B*8201 (B82) (human) [2] = assay: Luminex, iBeads (#6), 1:8
[3] = target: HLA-Cw*0302 (Cw10) (human); assay: Luminex, iBeads (#6), 1:8
[4] = target: HLA-Cw*0303 (Cw9) (human); assay: Luminex, iBeads (#6), 1:8
[5] = target: HLA-Cw*0304 (Cw10) (human); assay: Luminex, iBeads (#6), 1:8
[6] = target: HLA-Cw*0501 (Cw5) (human); assay: Luminex, iBeads (#6), 1:8
[7] = target: HLA-Cw*0602 (Cw6) (human); assay: Luminex, iBeads (#6), 1:8
[8] = target: HLA-Cw*0702 (Cw7) (human); assay: Luminex, iBeads (#6), 1:8
[9] = target: HLA-Cw*0801 (Cw8) (human); assay: Luminex, iBeads (#6), 1:8
[10] = target: HLA-Cw*1203 (Cw12) (human); assay: Luminex, iBeads (#6), 1:8
[11] = target: HLA-Cw*1402 (Cw14) (human); assay: Luminex, iBeads (#6), 1:8
[12] = target: HLA-Cw*1502 (Cw15) (human); assay: Luminex, iBeads (#6), 1:8
[13] = target: HLA-Cw*1601 (Cw16) (human); assay: Luminex, iBeads (#6), 1:8
[14] = target: HLA-Cw*1701 (Cw17) (human); assay: Luminex, iBeads (#6), 1:8
[15] = target: HLA-Cw*1802 (Cw18) (human); assay: Luminex, iBeads (#6), 1:8
[16] = target: Albumin (negative control beads) (human or bovine); assay: Luminex, regular beads (#7), 1:8
HLA-B*8201 (B82) (human) [17] = assay: Luminex, regular beads (#7), 1:8
[18] = target: HLA-Cw*0102 (Cw1) (human); assay: Luminex, regular beads (#7), 1:8
[19] = target: HLA-Cw*0202 (Cw2) (human); assay: Luminex, regular beads (#7), 1:8
[20] = target: HLA-Cw*0302 (Cw10) (human); assay: Luminex, regular beads (#7), 1:8
[21] = target: HLA-Cw*0303 (Cw9) (human); assay: Luminex, regular beads (#7), 1:8
[22] = target: HLA-Cw*0304 (Cw10) (human); assay: Luminex, regular beads (#7), 1:8
[23] = target: HLA-Cw*0401 (Cw4) (human); assay: Luminex, regular beads (#7), 1:8
[24] = target: HLA-Cw*0501 (Cw5) (human); assay: Luminex, regular beads (#7), 1:8
[25] = target: HLA-Cw*0602 (Cw6) (human); assay: Luminex, regular beads (#7), 1:8
[26] = target: HLA-Cw*0702 (Cw7) (human); assay: Luminex, regular beads (#7), 1:8
[27] = target: HLA-Cw*1203 (Cw12) (human); assay: Luminex, regular beads (#7), 1:8
[28] = target: HLA-Cw*1402 (Cw14) (human); assay: Luminex, regular beads (#7), 1:8
[29] = target: HLA-Cw*1502 (Cw15) (human); assay: Luminex, regular beads (#7), 1:8
[30] = target: HLA-Cw*1601 (Cw16) (human); assay: Luminex, regular beads (#7), 1:8
[31] = target: HLA-Cw*1701 (Cw17) (human); assay: Luminex, regular beads (#7), 1:8
[32] = target: HLA-Cw*1802 (Cw18) (human); assay: Luminex, regular beads (#7), 1:8
[33] = target: HLA-A*2902 (A29) single antigen on beads (human); assay: Luminex single-antigen regular beads (#7), IVIg 1:8
[34] = target: HLA-A*3001 (A30) single antigen on beads (human); assay: as above
[35] = target: HLA-A*3002 (A30) single antigen on beads (human); assay: as above
[36] = target: HLA-A*3101 (A31) single antigen on beads (human); assay: as above
[37] = target: HLA-A*3201 (A32) single antigen on beads (human); assay: as above
[38] = target: HLA-A*3301 (A33) single antigen on beads (human); assay: as above
[39] = target: HLA-A*3303 (A33) single antigen on beads (human); assay: as above
[40] = target: HLA-A*3401 (A34) single antigen on beads (human); assay: as above
[41] = target: HLA-A*3402 (A34) single antigen on beads (human); assay: as above
[42] = target: HLA-A*3601 (A36) single antigen on beads (human); assay: as above
[43] = target: HLA-A*6601 (A66) single antigen on beads (human); assay: as above
[44] = target: HLA-A*6602 (A66) single antigen on beads (human); assay: as above
[45] = target: HLA-A*6801 (A68) single antigen on beads (human); assay: as above
HLA-B*1302 (B13) (human) = assay: iBead MFI against regular-bead MFI, IVIg diluted 1:8
HLA-B*1503 (B72) (human) = assay: as above
HLA-B*1511 (B75) (human) = assay: as above

## IVIg Gamunex-C Lot NKLK1 (antibody)
[1]
  MFI: 7800 MFI
HLA-B*8201 (B82) (human) [2]
  MFI: -193 MFI
[3]
  MFI: 1770 MFI
[4]
  MFI: 1660 MFI
[5]
  MFI: 1820 MFI
[6]
  MFI: 2020 MFI
[7]
  MFI: 2110 MFI
[8]
  MFI: 2400 MFI
[9]
  MFI: 467 MFI
[10]
  MFI: 1950 MFI
[11]
  MFI: 1070 MFI
[12]
  MFI: 1200 MFI
[13]
  MFI: 1560 MFI
[14]
  MFI: 3250 MFI
[15]
  MFI: 1480 MFI
[16]
  MFI: 10300 MFI
HLA-B*8201 (B82) (human) [17]
  MFI: 4780 MFI
[18]
  MFI: 4310 MFI
[19]
  MFI: 6810 MFI
[20]
  MFI: 4130 MFI
[21]
  MFI: 3020 MFI
[22]
  MFI: 4430 MFI
[23]
  MFI: 6480 MFI
[24]
  MFI: 5980 MFI
[25]
  MFI: 10600 MFI
[26]
  MFI: 10500 MFI
[27]
  MFI: 5610 MFI
[28]
  MFI: 6160 MFI
[29]
  MFI: 3690 MFI
[30]
  MFI: 6850 MFI
[31]
  MFI: 5640 MFI
[32]
  MFI: 7160 MFI
[33]
  MFI: 820 MFI
[34]
  MFI: 1230 MFI
[35]
  MFI: 562 MFI
[36]
  MFI: 0 MFI
[37]
  MFI: 424 MFI
[38]
  MFI: 925 MFI
[39]
  MFI: 179 MFI
[40]
  MFI: 2150 MFI
[41]
  MFI: 0 MFI
[42]
  MFI: 704 MFI
[43]
  MFI: 875 MFI
[44]
  MFI: 838 MFI
[45]
  MFI: 0 MFI
HLA-B*1302 (B13) (human)
  Difference % (iBead vs regular bead): -100%
HLA-B*1503 (B72) (human)
  Difference % (iBead vs regular bead): -100%
HLA-B*1511 (B75) (human)
  Difference % (iBead vs regular bead): -51%

## IVIg Octagam (Octapharma, Lachen, Switzerland) (antibody)
HLA-B*8201 (B82) (human) [2]
  MFI: 510 MFI
[3]
  MFI: 1170 MFI
[4]
  MFI: 1220 MFI
[5]
  MFI: 1440 MFI
[6]
  MFI: 1510 MFI
[7]
  MFI: 586 MFI
[8]
  MFI: 1620 MFI
[9]
  MFI: 650 MFI
[10]
  MFI: 1620 MFI
[11]
  MFI: 976 MFI
[12]
  MFI: 255 MFI
[13]
  MFI: 1110 MFI
[14]
  MFI: 2710 MFI
[15]
  MFI: 873 MFI
[16]
  MFI: 2340 MFI
HLA-B*8201 (B82) (human) [17]
  MFI: 5030 MFI
[18]
  MFI: 7720 MFI
[19]
  MFI: 9380 MFI
[20]
  MFI: 5610 MFI
[21]
  MFI: 3350 MFI
[22]
  MFI: 5550 MFI
[23]
  MFI: 9880 MFI
[24]
  MFI: 8770 MFI
[26]
  MFI: 15300 MFI
[27]
  MFI: 8660 MFI
[28]
  MFI: 8430 MFI
[29]
  MFI: 4820 MFI
[30]
  MFI: 9260 MFI
[31]
  MFI: 8980 MFI
[32]
  MFI: 10600 MFI
[33]
  MFI: 1580 MFI
[34]
  MFI: 928 MFI
[35]
  MFI: 533 MFI
[36]
  MFI: 366 MFI
[37]
  MFI: 738 MFI
[38]
  MFI: 1490 MFI
[39]
  MFI: 542 MFI
[40]
  MFI: 2880 MFI
[41]
  MFI: 0 MFI
[42]
  MFI: 778 MFI
[43]
  MFI: 1700 MFI
[44]
  MFI: 3650 MFI
[45]
  MFI: 0 MFI
HLA-B*1302 (B13) (human)
  Difference % (iBead vs regular bead): -100%
HLA-B*1503 (B72) (human)
  Difference % (iBead vs regular bead): -100%
HLA-B*1511 (B75) (human)
  Difference % (iBead vs regular bead): -70%

## IVIg Gamunex-C Lot NKLG1 (antibody)
[1]
  MFI: 7150 MFI
HLA-B*8201 (B82) (human) [2]
  MFI: 2730 MFI
[3]
  MFI: 4870 MFI
[4]
  MFI: 4290 MFI
[5]
  MFI: 4140 MFI
[6]
  MFI: 4010 MFI
[7]
  MFI: 4230 MFI
[10]
  MFI: 4810 MFI
[11]
  MFI: 3970 MFI
[12]
  MFI: 3590 MFI
[13]
  MFI: 4070 MFI
[14]
  MFI: 6150 MFI
[15]
  MFI: 3580 MFI
[16]
  MFI: 10800 MFI
HLA-B*8201 (B82) (human) [17]
  MFI: 6060 MFI
[21]
  MFI: 4260 MFI
[23]
  MFI: 7530 MFI
[24]
  MFI: 7550 MFI
[25]
  MFI: 12000 MFI
[26]
  MFI: 11800 MFI
[27]
  MFI: 7100 MFI
[28]
  MFI: 7240 MFI
[30]
  MFI: 8460 MFI
[31]
  MFI: 6560 MFI
[32]
  MFI: 8430 MFI
[33]
  MFI: 1750 MFI
[35]
  MFI: 896 MFI
[36]
  MFI: 166 MFI
[37]
  MFI: 875 MFI
[38]
  MFI: 1690 MFI
[39]
  MFI: 476 MFI
[40]
  MFI: 3540 MFI
[41]
  MFI: 0 MFI
[42]
  MFI: 916 MFI
[43]
  MFI: 648 MFI
[45]
  MFI: 0 MFI
HLA-B*1302 (B13) (human)
  Difference % (iBead vs regular bead): -45%
HLA-B*1503 (B72) (human)
  Difference % (iBead vs regular bead): -79%
HLA-B*1511 (B75) (human)
  Difference % (iBead vs regular bead): -17%

## IVIg GamaSTAN S/D (Talecris Biotherapeutics, USA) (antibody)
[1]
  MFI: 5030 MFI
HLA-B*8201 (B82) (human) [2]
  MFI: 4260 MFI
[3]
  MFI: 2380 MFI
[4]
  MFI: 2610 MFI
[5]
  MFI: 2750 MFI
[6]
  MFI: 6350 MFI
[7]
  MFI: 8180 MFI
[8]
  MFI: 3480 MFI
[9]
  MFI: 1940 MFI
[10]
  MFI: 2660 MFI
[11]
  MFI: 1820 MFI
[12]
  MFI: 7670 MFI
[13]
  MFI: 2950 MFI
[14]
  MFI: 9610 MFI
[15]
  MFI: 7810 MFI
[16]
  MFI: 3790 MFI
HLA-B*8201 (B82) (human) [17]
  MFI: 3860 MFI
[18]
  MFI: 4540 MFI
[19]
  MFI: 7180 MFI
[20]
  MFI: 4010 MFI
[21]
  MFI: 2860 MFI
[22]
  MFI: 3710 MFI
[23]
  MFI: 6290 MFI
[24]
  MFI: 6970 MFI
[25]
  MFI: 9170 MFI
[26]
  MFI: 7620 MFI
[28]
  MFI: 4270 MFI
[29]
  MFI: 6170 MFI
[31]
  MFI: 7860 MFI
[32]
  MFI: 7980 MFI
[33]
  MFI: 991 MFI
[34]
  MFI: 924 MFI
[35]
  MFI: 1050 MFI
[36]
  MFI: 121 MFI
[37]
  MFI: 856 MFI
[38]
  MFI: 1120 MFI
[39]
  MFI: 322 MFI
[40]
  MFI: 3040 MFI
[41]
  MFI: 684 MFI
[42]
  MFI: 564 MFI
[43]
  MFI: 1410 MFI
[44]
  MFI: 2360 MFI
[45]
  MFI: 192 MFI
HLA-B*1503 (B72) (human)
  Difference % (iBead vs regular bead): -100%
HLA-B*1511 (B75) (human)
  Difference % (iBead vs regular bead): -16%
